Laboratory results from the DeepSol protein solubility set.

Experiment: soluble on expression in E. coli; label from the status in PepcDB or PDB records

| Sequence | soluble on expression in E. coli |
| --- | --- |
| MGSDKIHHHHHHMDVIKQIQQAIVYIEDRLLEPFNLQELSDYVGLSPYHLDQSFKMIVGLSPEAYARARKMTLAANDVINGATRLVDIAKKYHYANSNDFANDFSDFHGVSPIQASTKKDELQIQERLYIKLSTTERAPYPYRLEETDDISLVGYARFIDTKYLSHPFNVPDFLEDLLIDGKIKELRRYNDVSPFELFVISCPLENGLEIFVGVPSERYPAHLESRFLPGKHCAKFNLQGEIDYATNEAWYYIESSLQLTLPYERNDLYVEVYPLDISFNDPFTKIQLWIPVKQSPYDED | not soluble |
| MNDKTTRGRASKVDLLPPNIKSTLTMMLRDKQYSQAEILEEINNIIADSGLDESMQLSKTGLNRFASKMERFGKKIREAREVAEVWTKQLVEAPQSDIGKLLMEAVKTMAFDLTLNADEAVANDPKFLNQLALIANRIEQAQSISEERERKVRKEVAQQAADTAEKVISQAGLSADTVAQIKQQILGIA | not soluble |
| MSLGIIRSILDTDLYKFTTGYAYAKLFPRAYGEFRFIDRNRQGFTEEFAELVRGEIRAMAALSLTRDEKEFLQRELPYLPPIYIDFLDGFRFDPEEVTVSIDAQGHLDIRAQGLLYRVTLWETPILAVISELYYRFIGAKPDWKQVEEVTRSKGELMREHRTTFSIFGMRRRFSLEVEDRVTDILKQYAGESLFGTSNVHLAHKHGLRVSGTHPHEWIQFHGAIYGYKMANYVAMEDWINVYDGDLGTVLTDTYTTDVFMRNFSKKHAMLFTSLRHDSGDPEIFIEKAVRRYEELRVDPKIKYIIFSDSLTPQRAIEIQKLCAGRIKASFGIGTNLTNDVGGGVEPLNIVMKLWKCKMTAKDDWHYCVKLSDVDGKHTGEPEEILLAMNTLGIKPKEGHHHHHH | soluble |
| MFIPVIMAGGSGSRLWPLSRSAFPKQFLSLDSSSQHTMLQATIERLQGLPIAEPIVISNEDHRFIVAEQIRRYGKKSRIILEPAGRNTAPAIALAAFTAIEQEDDPVLLVLAADHFVKNKSAFQAAISQAAQQAEAGKLATFGIVPTTPETGYGYIHRGEEVTQGTYEINSFVEKPQLNIAEQYLASGEYYWNSGCFMFKASVFLNELKQHSPEIYRQCELAMQGLSHDYDFIRVGVEEFLKCPDDSIDYAVMEHTKLGVVVSMDAGWSDVGSWSALWEVSDKDADGNVCQGDAILSGTSNCYIYAPNKLVAAVGLKDIVVVETKDAVLVADKNQVQEVKKIVEHLKAENRAEYREHRERYRPWGKSDAIDKGERYKVNRITVEPGKKQSLQMHYHRAEHWVVVSGTAKVTCEGNVKVITENQSLYIPIGTNHMIENPGKIPLELIEIQSGSYLNEDDVVRFEDK | not soluble |
| MMIIGINGSPRKNGNTIEMLKSALDGAKAQGAETELINLYDYNYKGCVSCFSCKLKGGRSYGKCALKDDLKPILEKIEKADAFILASPIYFGMVTGEMRSFMERLLFQYLVYDKDHSSLFNRKIKTGFIYTMNVPETYLDSVGYNKLFESNEATLKRIFGASEYILSTDTYQFDDYSKYEASMFDVEAKKKRREEVFPEDCKRAYEMGASFVKLEHHHHHH | not soluble |
| MGSDKIHHHHHHMLAGKTASEIFDNIRHLVQSGGLQPGEVLPPVRELASQLAVNRNTVAAAYKRLVTSGLAVSQGRNGTAIKARDTLPALEGGDPTTPLNDISSGNPDPARLPDLPRYLGQIARTPRLYGDAPIEPRLGQWAEAWFAREIAVPFAVNLASGAIDALERLLCALLLPGDGVVVEDPCFLSSINMVRYAGFTPCPVAVDAEGMDPDGLEEALRNGARAVILTPRAHNPTGCSLTETRAHALREVLARYPQVLAIVDDHFALLSATPWHSPLPASTQRWALVRSMSKTLGPDLRLAFIASDAATSAALRLRLNAGSQWVSHLLQDLTLACLTDEAFIASMTETRRHYRQQNEKLAAALARHGFSHATPGDGLNFWLPLPAASQPYALRLARAGWLVREGEVFGIRTPSHGLRLSLGRLSDAEISRLAADIAQALDAP | not soluble |
| MIVMTKQQYQEILEHSRNALPNEACGLLGGRIENGVKYVEKVYLLRNIDESPEHFSMNPKEQFAAVKDMRNNGWELLGNFHSHPATPSRPSEEDIRLAFDPKASYLILSLKDDTPVLKSFNISSGQATQEELSIVGEEALEHHHHHH | soluble |
| MGSDKIHHHHHHMELDDAYANGAYIEGAADYPPRWAASAEDFRNSLQDRARLNLSYGEGDRHKFDLFLPEGTPVGLFVFVHGGYWMAFDKSSWSHLAVGALSKGWAVAMPSYELCPEVRISEITQQISQAVTAAAKEIDGPIVLAGHSAGGHLVARMLDPEVLPEAVGARIRNVVPISPLSDLRPLLRTSMNEKFKMDADAAIAESPVEMQNRYDAKVTVWVGGAERPAFLDQAIWLVEAWDADHVIAFEKHHFNVIEPLADPESDLVAVITA | not soluble |
| DDAYVERRVPQEMLGGHSQGDELPIHFSRSDAFERLPQPEPIRRRLVRVGSSPVHEERMVHQQIGDLCVGDTVAHARFGIGIIESLEGEGDNAKAEVSFQQVGRKRLLLRFAKLSKVEKDSI | not soluble |
| YSFIGNPVFKKPFELDEMREYYLNFFERRGHGRIERYPVVARWRTDIYLTIASIADFQPFVTSGVAPPPANPLTISQPCIRLDDLDSVGRTGRHLTLFEMMAHHAFNYPGKEIYWKNETVAYCTELLNELGVKKEDIVYKEEPWAGGGNAGPCLEAIVGGLEVATLVFMNLEEHPEGDIEIKGARYRKMDNYIVDTGYGLERFVWASKGTPTVYDAIFPEVVDTIIDNSNVSFNREDERVRRI | not soluble |
| MLIVLSLGGSILAKNLDPDRFLKYANALRDISKKHTLLVVTGGGEAARDYIGAARAMGADEVTCDYIGIEITRLNARLLISALGHDAYPEIPSNYPEASKAMTSGKVVVMGGVTPGQTTDAVASILAEYLRADLLTIATSIDGVYSSDPNCDPCAVKYEKISPEKLINIVMAIEMKAGSKSPVDPVAAKIIERCKLDALVMDARNPDLLVEVICGEAAKKSPVSCGTWITAKKMAGDPLEHHHHHH | soluble |
| MSAEASGPAAAAAPSLEAPKPSGLEPGPAAYGLKPLTPNSKYVKLNVGGSLHYTTLRTLTGQDTMLKAMFSGRVEVLTDAGGWVLIDRSGRHFGTILNYLRDGSVPLPESTRELGELLGEARYYLVQGLIEDCQLALQQKRETLSPLCLIPMVTSPREEQQLLASTSKPVVKLLHNRSNNKYSYTSTSDDNLLKNIELFDKLALRFHGRLLFLKDVLGDEICCWSFYGQGRKIAEVCCTSIVYATEKKQTKVEFPEARIFEETLNILIYETPRGPDPALLEATGGAAGAGGAGRGEDEENREHRVRRIHVRRHITHDERPHGQQIVFKDLEHHHHHH | not soluble |
| MSLKAYKTDGTHFRAITRQTLLGADEDERALGHQTRYFEIAPGGYSSLERHQHTHTVMILRGQGELILGDALHRIGRHDCIYIAPQTFHQFHASGDEPLGFLCIVDRERDRPREGHHHHHH | not soluble |
| GDAFVGTWKLVSSENFDDYMKEVGVGFATRKDAGMAKPNMIISVNGDLVTIRSESTHKNTEISFKLGVEFDEITADDRKVKSIITLDGGALVQVQKWDGKSTTIKRKRDGDKLVVECVMKGVTSTRVYERA | soluble |
| MSALLEVTNLHKDFVTRSGFLRKQIQHAVKPVSFTLEAGQTIGFIGQNGSGKSTLARMLAGMVAPTGGEIRVNGELLEHKDYSTRCKLIRMIFQDPNTSLNPRLQIGTILEGPLKRNTSMTPEARMRRVKDTLQRVGLLPEHAYFYPQMLATGQKQRVCLARALILQPSIIIADEALNGLDMAMRSQILNLFLELQEEMGVSFVYVSQHIGVIKHITDKIIVMHEGDVVESGETHEVLADPQHPITQRMIESHFTKAPTFKY | not soluble |
| MAEPAQETPCFSMEKAERAFLDGNFEEALKHFFVCIRMLPVERRGVYEDQFAAALHGWIALDHNNASRAVCLYPQIKELFPETIRTKIALIRAVQGTEQSKWLLNCLPICKDSMDLATKPEDLVALRIARVNLTTIPFPQWHIRMINDVKRNEAFAKALNDTIKSRITVVFDIGSGTGILSAIAARKTNLVTALEENMCLTMISKEVLKRNGVESRVNVHAKNSTYFETCEKADIVVSETLDCCVFGEKIVETFLDAHVRFSHDRTIFIPHQATVYVRLFSCREIFDIHCQDYGGVRYRSEYVKIGESDAEQPYWCASAADYSQFELLSGSVAMHSVDFSSIANLKDSLANSNSFKIRPAKDGVAHGFSVHFTSDLTGHGDNIIDSSKSRAWDLGIIPFKEPCLVKCDKEYEGSWKLLNNRLDVYNDFYDENLQKHEDSLRYETASLDQLQKIRDDSYFKAMMGEIDPIELPFTRDISSSIPAQCVLNTVESQTPIRHLITNFCRYDGTLDQETFFRIEEFVGFRDHVQKIVPTKFRILGHLFYSDRVHFDARPDPSAHCQVDLSTVRSFNLREMRDIRLTQREDIVMASKEFVLYDFNISAEKFRQDTYITVTQDVTVQPTRPIADGVIYEFEILGIRNTKLRPVAAFLFPERVNTNPDMTVVFDLHLGEMLISLKDLP | not soluble |
| MKLKYSGLTASGNTHPKFTRGDIYRDQYGGMVTIKGVAERRITYRREGYEYDCVMPVYQFRRDFTLVQAAPRSKPTSREKARANIQEIKKMLNVFRGKK | not soluble |
| MKMKSLFVAMITFFSAAPFAHWQPIGNAEYTWGPFHVYTIGLFSETGTYQENERPLMLSFKYEKPIEGKNFAITLIKEIETLKLNDGDTQSWLKEMQATFPDFSPNDILNYIALPDRGYFVLNDTVLEHDFDAKFNQAFIGIWLAPNSTFVKLQPQLLGKTKSNHEATEFYLKPEIESFDEQDSTPELPPNYLLDSQKKSQG | not soluble |
| MTTRLEWAKASPDAYAAMLGLEKALAKAGLERPLIELVYLRTSQINGCAYCVNMHANDARKAGETEQRLQALCVWQETPYFTPRERAALAWTEQLARLSQGALPHGLLDELREHFDDKEIAELTLAVSAINAWNRFGVGMGMQPE | soluble |
| STEESMYTQIIKELPREGSSDVLVIKNEHVKKSDIWPSGGEMVVKDLTVKYMDDGNAVLENISFSISPGQRVGLLGRTGSGKSTLLSAFLRMLNIKGDIEIDGVSWNSVTLQEWRKAFGVITQKVFIFSGTFRQNLDPNGKWKDEEIWKVADEVGLKSVIEQFPGQLNFTLVDGGYVLSHGHKQLMCLARSVLSKAKIILLDQPSAHLDPITYQVIRRVLKQAFAGCTVILCEHRIEAMLDCQRFLVIEESNVWQYDSLQALLSEKSIFQQAISSSEKMRFFQGRHSSKHKPRTQITALKEETEEEVQETRL | not soluble |
| MAHSTIPTLLCFCDEPLKRTNEGAEHVNQARRYAKWHVYRERGYETVPPTENPDSLLAACIAVARLSETAFEDAFGDIEAQIRSHYDDSTVELPFADADGSDILVYKKDIAVRPDPMTFDPPVLEQFLGQFSGDSDSPVVPAKADLDREVFDDLDFELKSVSGMHYLHNDGYDNERTVQSSQRLGTDPDATVEMIPVDPAEFGNFQHYVTSNLIYQARDVLLRMGVKPPIAFRAQGQGKYRATLEQQACPQYENYWDATADIQSWEPK | not soluble |
| MSLNNVIFSQKLYDTAQMIVDGCMGDADPACQTACPMHTDVKQYVRMAGEGNFQGALDLIRSKLFLPQTLGRICAHPCEASCRRNTEFGQPISVAGIKRFVAEKMDNQDHWDLNIAPLTNKHIAIVGAGPAGAQAAIELRRQGHEVTIYEKLDVYGGMMRVGIPEYRLPRDVIDFEYSYLAMLGIKTQFGVEIGKDISFDTLRSEHDAVILAHGAHVGSIIPLPGHDNDGVFSAVEYLKEISETRQFPRACKRVMVIGGGDVAMDCARSSWRIGASDVYQCSLESLESLPASQIEIDESLEEGVEFNAGWGPVAIEHENGKVTGITIKKVLSIFDEQGNFAPQYSEESKTISVDTVVFATGQIVADITDGALEQTRGGRYVVDKQTLASSLEDVFVAGDACGGNIVIEAMALGRKAAMSVERFLTARPLTEDRDFEQEYSYSSRLDVPLPKGTVDTPRLHGELRDAEERKQDFAQVDLGFTEEQIKQEASRCLQCSCKLCMTECIMMNDFSDCPKTIFSDFVNNKSMDPLLAYSCNACDQCTIVCPKDFPMKEMFLGARTDFVKANNGESPMPGHKAINMHQKLGFSKIFTMAKRAVSTKEGHHHHHH | not soluble |
